Laboratory results published in patent US20120309692A1.

B1: protein C inhibitor (PCI) (protein, UniProt P05154 20-406, looked up)
chain: HRHHPREMKKRVEDLHVGATVAPSSRRDFTFDLYRALASAAPSQSIFFSPVSISMSLAMLSLGAGSSTKMQILEGLGLNLQKSSEKELHRGFQQLLQELNQPRDGFQLSLGNALFTDLVVDLQDTFVSAMKTLYLADTFPTNFRDSAGAMKQINDYVAKQTKGKIVDLLKNLDSNAVVIMVNYIFFKAKWETSFNHKGTQEQDFYVTSETVVRVPMMSREDQYHYLLDRNLSCRVVGVPYQGNATALFILPSEGKMQQVENGLSEKTLRKWLKMFKKRQLELYLPKFSIEGSYQLEKVLPSLGISNVFTSHADLSGISNHSNIQVSEMVHKAVVEVDESGTRAAAATGTIFTFRSARLNSQRLVFNRPFLMFIVDNNILFLGKVNRP
B2: PSTI (protein, UniProt P00995 24-79, looked up)
chain: DSLGREAKCYNELNGCTKIYDPVCGTDGNTYPNECVLCFENRKRQTSILIQKSGPC
B3: α1-antichymotrypsin (ACT) (protein, human, UniProt P01011 24-423, looked up)
chain: HPNSPLDEENLTQENQDRGTHVDLGLASANVDFAFSLYKQLVLKAPDKNVIFSPLSISTALAFLSLGAHNTTLTEILKGLKFNLTETSEAEIHQSFQHLLRTLNQSSDELQLSMGNAMFVKEQLSLLDRFTEDAKRLYGSEAFATDFQDSAAAKKLINDYVKNGTRGKITDLIKDLDSQTMMVLVNYIFFKAKWEMPFDPQDTHQSRFYLSKKKWVMVPMMSLHHLTIPYFRDEELSCTVVELKYTGNASALFILPDQDKMEEVEAMLLPETLKRWRDSLEFREIGELYLPKFSISRDYNLNDILLQLGIEEAFTSKADLSGITGARNLAVSQVVHKAVLDVFEEGTEASAATAVKITLLSALVETRTIVRFNRPFLMIIVPTDTQNIFFMSKVTNPKQA

Molecular target: recombinant human glandular kallikrein 2 (hK2) (human) (UniProt P20151)
Assay: cell-based or functional assay

Row | Binder | hK2 Activity (%) of inhibitor-free control, inhibitor at 0.016 µM [%] | hK2 Activity (%) of inhibitor-free control, inhibitor at 0.08 µM [%] | hK2 Activity (%) of inhibitor-free control, inhibitor at 4 µM [%] | hK2 Activity (%) of inhibitor-free control, inhibitor at 0.8 µM [%]
1 | B1 | 50 | 0 |  | 
2 | B2 |  | 100 | 89 | 
3 | B3 |  |  |  | 100
